According to publication PMC3893235 (mAbs, 2013):
Values belong to the binder of their own block, whether it stands above or below them.

Legend:
biotinylated huAng2 [1] = molecular target: T1, biotinylated huAng2 (human, UniProt O15123, biotin); assay: ELISA
human Ang2 protein = human Ang2 protein (Homo sapiens (Human)., UniProt O15123); assay: KinExA
biotinylated huAng2 [2] = molecular target: T1, biotinylated huAng2; assay: ELISA; remark: listed apart in the source
human Tie2-Fc = human Tie2-Fc (human, UniProt Q02763 23-748); assay: ELISA
Sequence of human Tie2-Fc (Q02763 23-748): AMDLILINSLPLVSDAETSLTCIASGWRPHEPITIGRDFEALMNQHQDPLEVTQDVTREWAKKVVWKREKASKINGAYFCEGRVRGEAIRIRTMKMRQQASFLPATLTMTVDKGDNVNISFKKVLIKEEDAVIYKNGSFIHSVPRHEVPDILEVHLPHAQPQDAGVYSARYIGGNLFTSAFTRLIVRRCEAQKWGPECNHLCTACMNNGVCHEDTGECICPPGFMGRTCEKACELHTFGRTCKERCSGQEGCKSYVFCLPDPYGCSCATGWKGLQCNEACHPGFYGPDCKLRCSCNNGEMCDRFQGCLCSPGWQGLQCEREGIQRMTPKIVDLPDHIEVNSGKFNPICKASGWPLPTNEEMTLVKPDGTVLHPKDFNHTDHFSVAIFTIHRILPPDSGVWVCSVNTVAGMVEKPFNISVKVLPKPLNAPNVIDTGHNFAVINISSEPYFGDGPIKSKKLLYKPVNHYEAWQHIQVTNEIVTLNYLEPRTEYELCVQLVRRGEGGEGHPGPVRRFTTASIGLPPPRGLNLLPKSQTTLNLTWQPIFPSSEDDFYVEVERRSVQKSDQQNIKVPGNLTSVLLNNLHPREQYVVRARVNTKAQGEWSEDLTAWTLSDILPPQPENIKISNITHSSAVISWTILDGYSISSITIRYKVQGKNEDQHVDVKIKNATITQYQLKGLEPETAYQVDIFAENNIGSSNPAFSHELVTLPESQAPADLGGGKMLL

IC50 (biotinylated huAng2 [1]): 0.2 nM
Kd (human Ang2 protein): 0.0245 nM
B1: Ang2 mAb (antibody, V domains shown)
VH: QVQLVESGGGVVQPGRSLRLSCAASGFTFTNYGMHWGRQAPGKGLEWVAVISHDGNNKYYVDSVKGRFTISRDNSKNTLYLQMNSLRAEDTAVYYCAREGIDFWSGLNWFDPWGQGTLVTVSS
VL: EIVLTQSPGTLSLSPGERATLSCRASQSITGSYLAWYQQKPGQAPRLLICGASSWATGIPDRFSGSGSGTDFTLTISRLEPEDFAVYYCQQYSSSPITFGQGTRLEIK

fold change of potency against Ang2 mAb (biotinylated huAng2 [2]): ≤ 2.5 fold
B2: Ang2 mAb variant Cys49Gly (antibody, V domains shown)
VH: QVQLVESGGGVVQPGRSLRLSCAASGFTFTNYGMHWGRQAPGKGLEWVAVISHDGNNKYYVDSVKGRFTISRDNSKNTLYLQMNSLRAEDTAVYYCAREGIDFWSGLNWFDPWGQGTLVTVSS
VL: EIVLTQSPGTLSLSPGERATLSCRASQSITGSYLAWYQQKPGQAPRLLIGGASSWATGIPDRFSGSGSGTDFTLTISRLEPEDFAVYYCQQYSSSPITFGQGTRLEIK

binding result (biotinylated huAng2 [2]): binds
B3: Cys49Asp (antibody, V domains shown)
VH: QVQLVESGGGVVQPGRSLRLSCAASGFTFTNYGMHWGRQAPGKGLEWVAVISHDGNNKYYVDSVKGRFTISRDNSKNTLYLQMNSLRAEDTAVYYCAREGIDFWSGLNWFDPWGQGTLVTVSS
VL: EIVLTQSPGTLSLSPGERATLSCRASQSITGSYLAWYQQKPGQAPRLLIDGASSWATGIPDRFSGSGSGTDFTLTISRLEPEDFAVYYCQQYSSSPITFGQGTRLEIK

IC50 (biotinylated huAng2 [1]): 0.28 nM
Kd (human Ang2 protein): 0.037 nM
B4: Cys49Thr mAb (antibody, V domains shown)
VH: QVQLVESGGGVVQPGRSLRLSCAASGFTFTNYGMHWGRQAPGKGLEWVAVISHDGNNKYYVDSVKGRFTISRDNSKNTLYLQMNSLRAEDTAVYYCAREGIDFWSGLNWFDPWGQGTLVTVSS
VL: EIVLTQSPGTLSLSPGERATLSCRASQSITGSYLAWYQQKPGQAPRLLITGASSWATGIPDRFSGSGSGTDFTLTISRLEPEDFAVYYCQQYSSSPITFGQGTRLEIK

binding result (biotinylated huAng2 [2]): binds
B5: Ang2 mAb variant Cys49Glu (antibody, V domains shown)
VH: QVQLVESGGGVVQPGRSLRLSCAASGFTFTNYGMHWGRQAPGKGLEWVAVISHDGNNKYYVDSVKGRFTISRDNSKNTLYLQMNSLRAEDTAVYYCAREGIDFWSGLNWFDPWGQGTLVTVSS
VL: EIVLTQSPGTLSLSPGERATLSCRASQSITGSYLAWYQQKPGQAPRLLIEGASSWATGIPDRFSGSGSGTDFTLTISRLEPEDFAVYYCQQYSSSPITFGQGTRLEIK

binding result (biotinylated huAng2 [2]): binds
B6: Ang2 mAb variant Cys49Phe (antibody, V domains shown)
VH: QVQLVESGGGVVQPGRSLRLSCAASGFTFTNYGMHWGRQAPGKGLEWVAVISHDGNNKYYVDSVKGRFTISRDNSKNTLYLQMNSLRAEDTAVYYCAREGIDFWSGLNWFDPWGQGTLVTVSS
VL: EIVLTQSPGTLSLSPGERATLSCRASQSITGSYLAWYQQKPGQAPRLLIFGASSWATGIPDRFSGSGSGTDFTLTISRLEPEDFAVYYCQQYSSSPITFGQGTRLEIK

binding result (biotinylated huAng2 [2]): binds
B7: Cys49Asn (antibody, V domains shown)
VH: QVQLVESGGGVVQPGRSLRLSCAASGFTFTNYGMHWGRQAPGKGLEWVAVISHDGNNKYYVDSVKGRFTISRDNSKNTLYLQMNSLRAEDTAVYYCAREGIDFWSGLNWFDPWGQGTLVTVSS
VL: EIVLTQSPGTLSLSPGERATLSCRASQSITGSYLAWYQQKPGQAPRLLINGASSWATGIPDRFSGSGSGTDFTLTISRLEPEDFAVYYCQQYSSSPITFGQGTRLEIK

fold change of potency against Ang2 mAb (biotinylated huAng2 [2]): ≤ 2.5 fold
B8: Ang2 mAb variant Cys49Ala (antibody, V domains shown)
VH: QVQLVESGGGVVQPGRSLRLSCAASGFTFTNYGMHWGRQAPGKGLEWVAVISHDGNNKYYVDSVKGRFTISRDNSKNTLYLQMNSLRAEDTAVYYCAREGIDFWSGLNWFDPWGQGTLVTVSS
VL: EIVLTQSPGTLSLSPGERATLSCRASQSITGSYLAWYQQKPGQAPRLLIAGASSWATGIPDRFSGSGSGTDFTLTISRLEPEDFAVYYCQQYSSSPITFGQGTRLEIK

binding result (human Tie2-Fc): binds
B9: biotinylated huAng2 (ligand, human, UniProt O15123 19-496, looked up)
chain: YNNFRKSMDSIGKKQYQVQHGSCSYTFLLPEMDNCRSSSSPYVSNAVQRDAPLEYDDSVQRLQVLENIMENNTQWLMKLENYIQDNMKKEMVEIQQNAVQNQTAVMIEIGTNLLNQTAEQTRKLTDVEAQVLNQTTRLELQLLEHSLSTNKLEKQILDQTSEINKLQDKNSFLEKKVLAMEDKHIIQLQSIKEEKDQLQVLVSKQNSIIEELEKKIVTATVNNSVLQKQQHDLMETVNNLLTMMSTSNSAKDPTVAKEEQISFRDCAEVFKSGHTTNGIYTLTFPNSTEEIKAYCDMEAGGGGWTIIQRREDGSVDFQRTWKEYKVGFGNPSGEYWLGNEFVSQLTNQQRYVLKIHLKDWEGNEAYSLYEHFYLSSEELNYRIHLKGLTGTAGKISSISQPGNDFSTKDGDNDKCICKCSQMLTGGWWFDACGPSNLNGMYYPQRQNTNKFNGIKWYYWKGSGYSLKATTMMIRPADF
modifications: biotin
